The text below walks through data of publication PMC12809855, “Biochemical and Mechanistic Insights into O2 Scavenging and Stability of the Soluble Hydrogenase from Hydrogenophaga pseudoflava” (ACS Omega, 2025).

Substrate in this data set: NC(=O)c1ccc[n+]([C@@H]2O[C@H](COP(=O)(O)OP(=O)(O)OC[C@H]3O[C@@H](n4cnc5c(N)ncnc54)[C@H](O)[C@@H]3O)[C@@H](O)[C@H]2O)c1
Briefly: purified protein. It is filed as biochemical, Hydrogenophaga pseudoflava. Conditions: H2-saturated buffer, 50 mM Tris-HCl, no additional salt, pH 7, 30 °C, 1 mM TCEP, 1 μM FMN, kcat apparent.

B1: HpSH (soluble hydrogenase from Hydrogenophaga pseudoflava, HoxFUYH) (Hydrogenophaga pseudoflava) (protein)
chain: MTAFDQPSALHAADAVLARWQHDPHALVQVLRETQAQTHWLPRELLAHIAAALRLTTAHVEGVASFYRFFHLRPVGRVHVLFSDNITDRMAGSDALMARLCARLGVAPGQVDAQGRFCVDRCSCTGLCDQGPALLVNHHQVVTRLDAGRVDQLAERLLAGVPPEDWPADWFAVEDHVRRADVLLQGLPADAPSLPAVLSRTPAELLAEVERSGLRGRGGAGFPTARKWRACAEADAPDGQRCVVCNADEGEPGTFKDRVLLGRHADELFDGMTLAARAIGAQTGLVYLRGEYRFLLPQLEAVLQRRRANGLLGRNAGGVAGFDFDIAIHLGAGAYVCGEESALIESLEGQRGTPRIRPPFPVQRGYLGRPTVVNNVETLVAVAHIARRGGAWWAGLGTPESTGTKIHSVSGDCERPGLYEYPLGTPLAQILADCGARNAQAVQVGGPSGSCVPASGFHRAIAFEDLPSAGALMVFDQTRDLFEVARHFARFFAHESCGLCTPCRVGTELVVRRLDKLAHERGAGRGSAFDIARLQELDALLHSGTHCGLGVSACNPLRDTLAHFGQAYAQRSTAAQFQPGIDLDAELSSARRATGRQDRGAHLNTEHGA
notes: full-length HoxFUYH heterotetramer, N-terminal Strep-tag on HoxF, coexpressed with endopeptidase HoxW (HoxH C-terminally processed), homologous expression in H. pseudoflava from pOCEx1; no HoxI; preparation has excess HoxF; with NAD-reducing hydrogenase HoxS subunit gamma; NAD-reducing hydrogenase HoxS subunit delta; NAD-reducing hydrogenase HoxS subunit beta
As to B1, the Michaelis-Menten constant (Km) came to 400 ± 140 µM and the catalytic constant (kcat) was found to be 137 ± 20 s⁻¹.
